{"source": "patent US20240034813A1", "about": "(Janssen / Centocor, published 2024)", "binders": {"B1": {"name": "amivantamab (bispecific antibody, human IgG1, kappa)", "heavy 1": "not shown", "light 1": "not shown", "heavy 2": "not shown", "light 2": "DIQMTQSPSSVSASVGDRVTITCRASQGISNWLAWFQHKPGKAPKLLIYAASSLLSGVPSRFSGSGSGTDFTLTISSLQPEDFATYYCQQANSFPITFGQGTRLEIKRTVAAPSVFIFPPSDEQLKSGTASVVCLLNNFYPREAKVQWKVDNALQSGNSQESVTEQDSKDSTYSLSSTLTLSKADYEKHKVYACEVTHQGLSSPVTKSFNRGEC", "notes": "The samples tested were high concentration (160 mg/mL) formulations, fresh or stored or stressed; also called JNJ-61186372; bispecific EGFR-cMet antibody"}}, "key": {"[1]": {"target": "T1, recombinant human EGFR/ErbB1/HER1 with C-terminal His tag, Cy5-labeled (human, UniProt P00533 25-645, Cy5 label (reacted with Cy5 Mono NHS Ester; sites not stated))", "T1 construct": "Commercial protein; also called Cy5-EGFR; Cy5-labeled EGFR antigen; not shown: C-terminal His tag", "test": "competitive TR-FRET (Eu-amivantamab/Cy5-EGFR), EC50 ratio vs Reference Material; Ex. 2 Formulation 3 (acetate), 1 month at 40 C", "text": "(§1) In this procedure, varying concentrations of unlabeled bispecific EGFR-cMet antibody sample compete with donor fluorophore (Europium (Eu) chelate) labeled bispecific EGFR-cMet antibody for binding to an acceptor fluorophore (Cy5)-labeled EGFR antigen. Excitation of the donor fluorophore results in a transfer of energy to the bound acceptor fluorophore (FRET process). The resultant FRET is detected by emission of light at 665 nm using a microplate reader capable of measuring time-resolved fluorescence. Sample dose response curves are compared to the RM.\n(§2) EGFR Binding Materials and Methods. Certified commercial EGFR, a recombinant human EGFR/ErbB1/HER1 with C-terminal His tag is reacted with certified commercial Cy5 Mono NHS Ester to produce Cy5-labeled EGFR. Validated bispecific EGFR-cMet antibody is reacted with certified commercial Europium (Eu) chelate to produce Eu-labeled bispecific EGFR-cMet antibody. […] Fluorescence is then measured by spectrophotometry at 665 nm, plotted against antibody concentration and analyzed by a four-parameter logistic model. The antibody concentration required to obtain half of the maximum fluorescence response (EC50) is determined for RM, assay control and samples. The potencies of assay control and samples are calculated based on the ratio of the sample (or control) and RM EC50 values and reported as a percentage activity relative to the RM."}, "[2]": {"target": "T1, recombinant human EGFR/ErbB1/HER1 with …", "test": "competitive TR-FRET (Eu-amivantamab/Cy5-EGFR), EC50 ratio vs Reference Material; Ex. 12 drug product with rHuPH20, 12 months at 5 C", "text": "as §1, §2"}, "[3]": {"target": "T2, recombinant cMet/HGFR with c-terminal His-tag, Cy5-labeled (UniProt P08581 25-932, limits assumed, Cy5 label (reacted with Cy5 Mono NHS Ester; sites not stated))", "T2 construct": "Commercial protein; also called Cy5-c-MET; Cy5-labeled c-MET antigen; not shown: C-terminal His-tag", "test": "competitive TR-FRET (Eu-amivantamab/Cy5-c-MET), EC50 ratio vs Reference Material; Ex. 12 drug product with rHuPH20, 3 months at 40 C", "text": "as §1, with “(Cy5)-labeled c-MET” for “(Cy5)-labeled EGFR”, “the Reference Material (RM).” for “the RM.”\nas §2, with “c-MET Binding” for “EGFR Binding”, “commercial cMet,” for “commercial EGFR,”, “recombinant cMet/HGFR” for “recombinant human EGFR/ErbB1/HER1”, “with c-terminal His-tag” for “with C-terminal His tag”, “Cy5-labeled c-MET.” for “Cy5-labeled EGFR.”, “produce Eu labeled” for “produce Eu-labeled”"}, "[4]": {"target": "T2, recombinant cMet/HGFR with c-terminal …", "test": "competitive TR-FRET (Eu-amivantamab/Cy5-c-MET), EC50 ratio vs Reference Material; Ex. 12 drug product with rHuPH20, 3 months at 25 C", "text": "as §1, with “(Cy5)-labeled c-MET” for “(Cy5)-labeled EGFR”, “the Reference Material (RM).” for “the RM.”\nas §2, with “c-MET Binding” for “EGFR Binding”, “commercial cMet,” for “commercial EGFR,”, “recombinant cMet/HGFR” for “recombinant human EGFR/ErbB1/HER1”, “with c-terminal His-tag” for “with C-terminal His tag”, “Cy5-labeled c-MET.” for “Cy5-labeled EGFR.”, “produce Eu labeled” for “produce Eu-labeled”"}, "[5]": {"target": "T2, recombinant cMet/HGFR with c-terminal …", "test": "competitive TR-FRET (Eu-amivantamab/Cy5-c-MET), EC50 ratio vs Reference Material; Ex. 11 drug product, 1 month at 40 C", "text": "as §1, with “(Cy5)-labeled c-MET” for “(Cy5)-labeled EGFR”, “the Reference Material (RM).” for “the RM.”\nas §2, with “c-MET Binding” for “EGFR Binding”, “commercial cMet,” for “commercial EGFR,”, “recombinant cMet/HGFR” for “recombinant human EGFR/ErbB1/HER1”, “with c-terminal His-tag” for “with C-terminal His tag”, “Cy5-labeled c-MET.” for “Cy5-labeled EGFR.”, “produce Eu labeled” for “produce Eu-labeled”"}, "[6]": {"target": "T2, recombinant cMet/HGFR with c-terminal …", "test": "competitive TR-FRET (Eu-amivantamab/Cy5-c-MET), EC50 ratio vs Reference Material; Ex. 11 drug product, 6 months at 25 C", "text": "as §1, with “(Cy5)-labeled c-MET” for “(Cy5)-labeled EGFR”, “the Reference Material (RM).” for “the RM.”\nas §2, with “c-MET Binding” for “EGFR Binding”, “commercial cMet,” for “commercial EGFR,”, “recombinant cMet/HGFR” for “recombinant human EGFR/ErbB1/HER1”, “with c-terminal His-tag” for “with C-terminal His tag”, “Cy5-labeled c-MET.” for “Cy5-labeled EGFR.”, “produce Eu labeled” for “produce Eu-labeled”"}, "[7]": {"target": "T1, recombinant human EGFR/ErbB1/HER1 with …", "test": "competitive TR-FRET (Eu-amivantamab/Cy5-EGFR), EC50 ratio vs Reference Material; Ex. 11 drug product, 12 months at 5 C", "text": "as §1, §2"}, "[8]": {"target": "T1, recombinant human EGFR/ErbB1/HER1 with …", "test": "competitive TR-FRET (Eu-amivantamab/Cy5-EGFR), EC50 ratio vs Reference Material; Ex. 3 acetate formulation with PS80, T0", "text": "as §1, §2"}, "[9]": {"target": "T2, recombinant cMet/HGFR with c-terminal …", "test": "competitive TR-FRET (Eu-amivantamab/Cy5-c-MET), EC50 ratio vs Reference Material; Ex. 11 drug product, 3 months at 40 C", "text": "as §1, with “(Cy5)-labeled c-MET” for “(Cy5)-labeled EGFR”, “the Reference Material (RM).” for “the RM.”\nas §2, with “c-MET Binding” for “EGFR Binding”, “commercial cMet,” for “commercial EGFR,”, “recombinant cMet/HGFR” for “recombinant human EGFR/ErbB1/HER1”, “with c-terminal His-tag” for “with C-terminal His tag”, “Cy5-labeled c-MET.” for “Cy5-labeled EGFR.”, “produce Eu labeled” for “produce Eu-labeled”"}}, "data": [{"binder": "B1", "values": [{"measurement": "EGFR Binding % activity relative to RM", "setting": "[1]", "result": 76, "unit": "%"}, {"measurement": "EGFR Binding activity relative to Reference Material (%)", "setting": "[2]", "result": 94, "unit": "%"}, {"measurement": "cMET Binding activity relative to Reference Material (%)", "setting": "[3]", "result": 68, "unit": "%"}, {"measurement": "cMET Binding activity relative to Reference Material (%)", "setting": "[4]", "result": 81, "unit": "%"}, {"measurement": "cMET Binding activity relative to Reference Material (%)", "setting": "[5]", "result": 84, "unit": "%"}, {"measurement": "cMET Binding activity relative to Reference Material (%)", "setting": "[6]", "result": 113, "unit": "%"}, {"measurement": "EGFR Binding activity relative to Reference Material (%)", "setting": "[7]", "result": 86, "unit": "%"}, {"measurement": "EGFR Binding % activity relative to RM", "setting": "[8]", "result": 103, "unit": "%"}, {"measurement": "cMET Binding activity relative to Reference Material (%)", "setting": "[9]", "result": 78, "unit": "%"}]}]}
